This note sets out measurements from patent US20230074657A1.

This assay concerns the target Tag1-LAG3 protein (UniProt P18627). Description: HTRF blocking assay (Cisbio kit): Tag1-LAG3 with Tag2-FGL1 and antibody. (Time-resolved FRET reads energy transfer from a long-lived donor to a nearby acceptor.)

Chain of Tag1-LAG3 protein (P18627 23-450): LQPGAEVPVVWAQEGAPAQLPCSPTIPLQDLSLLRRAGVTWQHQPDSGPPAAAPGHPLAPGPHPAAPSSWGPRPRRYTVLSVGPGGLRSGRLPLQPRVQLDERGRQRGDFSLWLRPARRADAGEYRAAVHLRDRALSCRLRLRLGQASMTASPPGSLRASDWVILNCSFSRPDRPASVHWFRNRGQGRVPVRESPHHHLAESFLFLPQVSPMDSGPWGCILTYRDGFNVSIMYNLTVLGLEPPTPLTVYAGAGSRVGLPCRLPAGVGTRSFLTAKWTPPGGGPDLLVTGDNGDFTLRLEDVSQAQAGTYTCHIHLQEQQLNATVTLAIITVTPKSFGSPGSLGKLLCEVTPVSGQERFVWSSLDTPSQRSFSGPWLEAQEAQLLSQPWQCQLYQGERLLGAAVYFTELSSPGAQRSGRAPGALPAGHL

Positive control (ab40465) (antibody) showed an IC50 (read off the curve) of 2 µg/mL.
